# Source: patent US20050085629A1, “Utilization of FPRL1 as a functional receptor by serum amyloid A (SAA)” (priority 1999, published 2005)
# T1: FPRL1 (Homo sapiens, UniProt P25090)
# T1 sequence (P25090 1-351): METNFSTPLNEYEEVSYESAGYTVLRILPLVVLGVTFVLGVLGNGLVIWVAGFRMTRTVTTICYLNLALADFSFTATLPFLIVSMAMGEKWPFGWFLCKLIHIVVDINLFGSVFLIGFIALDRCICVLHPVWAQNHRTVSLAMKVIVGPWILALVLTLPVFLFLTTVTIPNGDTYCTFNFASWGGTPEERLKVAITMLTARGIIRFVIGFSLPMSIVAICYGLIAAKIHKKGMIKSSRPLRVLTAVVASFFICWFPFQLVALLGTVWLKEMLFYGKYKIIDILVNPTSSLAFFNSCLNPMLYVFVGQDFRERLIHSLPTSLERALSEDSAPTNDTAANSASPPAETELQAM
# T2: FPR (Homo sapiens, UniProt P21462)
# T2 sequence (P21462 1-350): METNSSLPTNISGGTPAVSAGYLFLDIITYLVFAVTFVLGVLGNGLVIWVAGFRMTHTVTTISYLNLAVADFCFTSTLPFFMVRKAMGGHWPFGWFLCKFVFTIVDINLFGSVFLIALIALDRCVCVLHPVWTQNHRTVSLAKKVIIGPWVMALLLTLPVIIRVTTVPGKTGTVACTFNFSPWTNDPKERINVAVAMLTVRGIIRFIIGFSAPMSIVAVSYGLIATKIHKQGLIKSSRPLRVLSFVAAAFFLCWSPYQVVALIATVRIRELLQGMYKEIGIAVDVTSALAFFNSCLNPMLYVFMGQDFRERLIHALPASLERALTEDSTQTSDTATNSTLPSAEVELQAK
# B1: ^125I-SAA: rhSAA radio-iodinated on tyrosine and lysine residues with the chloramine T method (protein)
# chain: MRSFFSFLGEAFDGARDMWRAYSDMREANYIGSDKYFHARGNYDAAKRGPGGVWAAEAISNARENIQRFFGRGAEDSLADQAANEWGRSGKDPNHFRPAGLPEKY
# B2: serum amyloid A (protein, listed as Homo Sapiens)
# chain: B1 chain
# modifications: N-terminal methionine
# notes: Recombinant human SAA from Pepro Tech; corresponds to SAA-1α with added NH2-terminal methionine and aspartic acid for asparagine at position 60
# Legend:
# [1] = biological target: T1, FPRL1; assay: Calcium mobilization (Fura-2) in FPRL1 transfected HEK 293 cells (FPRL1/293 cells); assay type: cell-based
# [2] = system: human monocytes; assay: Cross-desensitization of Ca2+ mobilization in human monocytes (and neutrophils); assay type: cell-based
# [3] = biological target: T1, FPRL1; assay: Chemotaxis of FPRL1/293 cells (48-well microchemotaxis chamber); assay type: cell-based; settings: for agonist activity on FPRL1: concluded from chemotaxis experiments
# [4] = biological target: T1, FPRL1; assay: 125I-SAA ligand binding to FPRL1/293 cells
# Procedure: (§1) rhSAA (20: g) was radio-iodinated on tyrosine and lysine residues with the chloramine T method and the specific activity of the labeled SAA was 5.8 mCi/mg (courtesy of J. Dobbs, SAIC Frederick, NCI-FCRDC, Frederick, Md.). A constant concentration of 16 nM ^125I-SAA was incubated for 20 min at 37° C. with human monocytes or 293 cells transfected with chemoattractant receptor cDNAs (1.5-2×10^6/sample, in 200: l RPMI1640, 1% BSA, 0.05% NaN3) in the presence of increasing concentrations of unlabeled SAA. After incubation, the cells were washed once with ice-cold PBS then were layered onto a 10% sucrose/PBS cushion in Eppendorf tubes. The cells were centrifuged at 10,000 g for 1 min and the tips of the tubes containing cell pellets were cut and measured for radioactivity in a γ-counter. The binding data were analyzed and plotted with a computer-aided program LIGAND (P. Munson, Division of Computer Research and Technology, NIH, Bethesda, Md.). The level of specific binding was determined by subtraction of non-specific binding (cpm on cells in the presence of 1: M unlabeled SAA) from the total binding (cpm on cells in the absence of unlabeled SAA). Experiments were performed at least 5 times which yielded similar results.
# [5] = system: human monocytes; assay: 125I-SAA ligand binding to human monocytes
# Excerpt: GLPEKY. (SEQ. ID. No. 1). This rhSAA corresponds to SAA-1α, one of the major SAA isoforms in the serum, except for the addition of a methionine at the NH2 terminus as well as the substitution of aspartic acid for asparagine at position 60, which appears in the SAA2 isoform (reviewed in ref. Steinkasserer et al., Biochem. J., 268:187-193 (1990)). rhSAA at concentrations used in the study was negative for endotoxin as assessed by Limulus amebocyte lysate assays (sensitivity: 0.06 IU/ml. Bio Whittaker, Walkersville, Md.). High density lipoprotein (HDL) was purchased from Sigma (St. Louis, Mo.). […]
# rhSAA (20: g) was radio-iodinated on tyrosine and lysine residues with the chloramine T method and the specific activity of the labeled SAA was 5.8 mCi/mg (courtesy of J. Dobbs, SAIC Frederick, NCI-FCRDC, Frederick, Md.). […] The cells were centrifuged at 10,000 g for 1 min and the tips of the tubes containing cell pellets were cut and measured for radioactivity in a γ-counter. The binding data were analyzed and plotted with a computer-aided program LIGAND (P. Munson, Division of Computer Research and Technology, NIH, Bethesda, Md.). The level of specific binding was determined by subtraction of non-specific binding (cpm on cells in the presence of 1: M unlabeled SAA) from the total binding (cpm on cells in the absence of unlabeled SAA). […]
# [6] = system: neutrophils; assay: 125I-SAA ligand binding to neutrophils; parameters: species or system human
# [7] = biological target: human peripheral blood CD3+ T lymphocytes; assay: 125I-SAA binding to human peripheral blood CD3+ T lymphocytes
# [8] = biological target: T2, FPR; assay: Radiolabeled SAA binding to cells transfected to express FPR; parameters: expressed in transfected cells; settings: cells transfected to express the receptor
# Procedure: as §1
# [9] = biological target: T2, FPR; settings: FPR expressing 293 cells, FIG. 2C
# [10] = system: leukocyte; settings: from Badolato et al. 1994, Xu et al. 1995, Badolato et al. 1995; cited from earlier work
# [11] = biological target: T2, FPR; assay: Chemotaxis of FPR expressing ETFR cells (48-well microchemotaxis chamber); assay type: cell-based; parameters: expressed in transfected cells; host or cells: ETFR cells (rat basophil leukemia cell line), gift from Drs; H. Ali and R. Snyderman; settings: FIG. 3B
# [12] = FPRL1/293 cells pretreated with toxin
# [13] = FPRL1/293 cells, commercially available LXA4 (Biomol)
molecule,measurement,setting,value
"CSCC[C@H](NC=O)C(=O)N[C@@H](CC(C)C)C(=O)N[C@@H](Cc1ccccc1)C(=O)O [fMLP, N-formyl-methionyl-leucyl-phenylalanine]",desensitization of Ca2+ flux response to SAA by prior fMLP,"[1]; FPRL1/293 cells, sequential stimulation, fMLP at 100 fold excess of SAA",only partially desensitized
same,desensitization of SAA-induced Ca2+ mobilization,"[2]; fMLP 10^-3 M = 1 mM, monocytes, FIG. 1C",completely desensitized
same,desensitization of SAA-induced Ca2+ mobilization,"[2]; fMLP at 100 nM, monocytes, FIG. 1B",partial desensitizing effect
same,attenuation of subsequent cell response (Ca2+) to SAA,"[2]; fMLP at relatively high concentrations (10: M and more), monocytes and neutrophils",able to attenuate a subsequent cell response to SAA
same,cell migration in response to stimulant,"[3]; FPRL1/293 cells, wide range of concentrations, FIG. 3A",failed to migrate
same,agonist activity on FPRL1,[3],partial agonist
same,competition with 125I-SAA for binding,"[4]; unlabeled fMLP at high concentrations (≧10: M), FPRL1/293 cells, FIG. 4D",only partially competed
same,competition with 125I-SAA for binding,"[5]; unlabeled fMLP at high concentrations (≧10: M), FIG. 4C",only partially competed
pertussis toxin,effect of cell pretreatment on SAA induced Ca2+ mobilization,[1]; [12],inhibited
same,effect of cell pretreatment on SAA induced chemotaxis,[3]; [12],inhibited
"CCCCC[C@H](O)/C=C/C=C\C=C\C=C\[C@@H](O)[C@@H](O)CCCC(=O)O [LXA4, lipoxin A4]",induction of Ca2+ flux,[1]; [13],did not detect a significant induction
same,induction of chemotaxis,[3]; [13],did not detect a significant induction
same,inhibition of SAA binding,[4]; phagocytes or FPRL1/293 cells,nor did we observe inhibition
B1,binding sites/cell,"[4]; FPRL1/293 cells, FIG. 4A",42000 binding sites/cell
same,Kd,[6],45 nM
same,specific binding,[5]; FIG. 4B,specifically bound
same,Kd,[7],300 nM
same,binding to FPR receptor,[8],not the FPR receptor
B2,desensitization of Ca2+ flux response to fMLP by prior SAA,"[1]; FPRL1/293 cells, sequential stimulation, 100 fold excess of fMLP",able to desensitize the cell response to a 100 fold excess of fMLP
same,EC50,"[1]; FPRL1 transfected cells (FPRL1/293 cells), FIG. 2B, read-out: EC50 for Ca2+ mobilization",250 nM
same,"desensitization of Ca2+ flux induced by chemokines (MCP-1, RANTES, MCP-3, MIP-1, IL-8, SDF-1)","[2]; SAA at 1: M, monocytes or neutrophils",failked to desensitize
same,attenuation of cell response (Ca2+) to fMLP,"[2]; fMLP used at 100 nM, monocytes, FIG. 1A",did not attenuate the cell response
same,EC50,"[3]; FPRL1/293 cells, read-out: EC50 of migratory response (chemotaxis)",200 nM
same,agonist activity on FPRL1,[3],full agonist activity
same,induction of Ca2+ mobilization,[9],not in FPR expressing cells
same,"optimal concentrations to induce leukocyte migration, adhesion and tissue infiltration",[10],0.8-4 : M
same,cell migration in response to stimulant,[11],did not migrate
